Results taken from IntAct's records for PubMed 31515488.

B1: Peroxisomal biogenesis factor 19 (Homo sapiens), P40855 (parent)
chain: MAAAEEGCSVGAEADRELEELLESALDDFDKAKPSPAPPSTTTAPDASGPQKRSPGDTAKDALFASQEKFFQELFDSELASQATAEFEKAMKELAEEEPHLVEQFQKLSEAAGRVGSDMTSQQEFTSCLKETLSGLAKNATDLQNSSMSEEELTKAMEGLGMDEGDGEGNILPIMQSIMQNLLSKDVLYPSLKEITEKYPEWLQSHRESLPPEQFEKYQEQHSVMCKICEQFEAETPTDSETTQKARFEMVLDLMQQLQDLGHPPKELAGEMPPGLNFDLDALNLSGPPGASGEQCLIM
partner: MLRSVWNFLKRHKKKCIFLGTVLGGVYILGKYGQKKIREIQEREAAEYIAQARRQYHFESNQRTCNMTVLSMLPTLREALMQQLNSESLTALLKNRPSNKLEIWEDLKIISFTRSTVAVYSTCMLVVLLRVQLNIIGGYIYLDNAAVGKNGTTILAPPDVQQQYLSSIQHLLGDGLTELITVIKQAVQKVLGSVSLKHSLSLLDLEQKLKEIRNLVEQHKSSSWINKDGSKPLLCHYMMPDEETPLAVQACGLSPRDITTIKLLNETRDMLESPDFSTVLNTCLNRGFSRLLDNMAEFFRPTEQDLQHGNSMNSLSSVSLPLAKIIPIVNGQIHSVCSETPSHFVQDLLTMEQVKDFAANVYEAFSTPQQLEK
B2: Mediator of RNA polymerase II transcription subunit 20 (Homo sapiens), Q9H944 (parent)
chain: MGVTCVSQMPVAEGKSVQQTVELLTRKLEMLGAEKQGTFCVDCETYHTAASTLGSQGQTGKLMYVMHNSEYPLSCFALFENGPCLIADTNFDVLMVKLKGFFQSAKASKIETRGTRYQYCDFLVKVGTVTMGPSARGISVEVEYGPCVVASDCWSLLLEFLQSFLGSHTPGAPAVFGNRHDAVYGPADTMVQYMELFNKIRKQQQVPVAGIR
partner: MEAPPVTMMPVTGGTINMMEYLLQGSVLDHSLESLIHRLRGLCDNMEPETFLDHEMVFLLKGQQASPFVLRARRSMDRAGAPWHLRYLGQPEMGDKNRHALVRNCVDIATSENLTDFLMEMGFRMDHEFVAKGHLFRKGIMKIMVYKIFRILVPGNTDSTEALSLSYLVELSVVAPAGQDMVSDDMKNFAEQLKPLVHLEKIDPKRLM
B3: Nucleoporin p54 (Homo sapiens), Q7Z3B4 (parent)
chain: MAFNFGAPSGTSGTAAATAAPAGGFGGFGTTSTTAGSAFSFSAPTNTGTTGLFGGTQNKGFGFGTGFGTTTGTSTGLGTGLGTGLGFGGFNTQQQQQTTLGGLFSQPTQAPTQSNQLINTASALSAPTLLGDERDAILAKWNQLQAFWGTGKGYFNNNIPPVEFTQENPFCRFKAVGYSCMPSNKDEDGLVVLVFNKKETEIRSQQQQLVESLHKVLGGNQTLTVNVEGTKTLPDDQTEVVIYVVERSPNGTSRRVPATTLYAHFEQANIKTQLQQLGVTLSMTRTELSPAQIKQLLQNPPAGVDPIIWEQAKVDNPDSEKLIPVPMVGFKELLRRLKVQDQMTKQHQTRLDIISEDISELQKNQTTSVAKIAQYKRKLMDLSHRTLQVLIKQEIQRKSGYAIQADEEQLRVQLDTIQGELNAPTQFKGRLNELMSQIRMQNHFGAVRSEERYYIDADLLREIKQHLKQQQEGLSHLISIIKDDLEDIKLVEHGLNETIHIRGGVFS
partner: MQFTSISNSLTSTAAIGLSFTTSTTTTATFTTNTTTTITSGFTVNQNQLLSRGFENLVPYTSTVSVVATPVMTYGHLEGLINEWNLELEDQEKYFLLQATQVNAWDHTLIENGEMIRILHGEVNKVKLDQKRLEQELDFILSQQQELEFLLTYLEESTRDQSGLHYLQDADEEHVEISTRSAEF

Variants of: B1
Conditions: with pex3_human PEX3, P56589

Row | Variant | effect of a mutation on the interaction
1 | MAAAEEGCSVGAEADRELEEVLESALDDFDKAKPSPAPPSTTTAPDASGPQKRSPGDTAKDALFASQEKFFQELFDSELASQATAEFEKAMKELAEEEPHLVEQFQKLSEAAGRVGSDMTSQQEFTSCLKETLSGLAKNATDLQNSSMSEEELTKAMEGLGMDEGDGEGNILPIMQSIMQNLLSKDVLYPSLKEITEKYPEWLQSHRESLPPEQFEKYQEQHSVMCKICEQFEAETPTDSETTQKARFEMVLDLMQQLQDLGHPPKELAGEMPPGLNFDLDALNLSGPPGASGEQCLIM [L21V] | with no effect
2 | MAAAEEGCSVGAEADRELEELLESAIDDFDKAKPSPAPPSTTTAPDASGPQKRSPGDTAKDALFASQEKFFQELFDSELASQATAEFEKAMKELAEEEPHLVEQFQKLSEAAGRVGSDMTSQQEFTSCLKETLSGLAKNATDLQNSSMSEEELTKAMEGLGMDEGDGEGNILPIMQSIMQNLLSKDVLYPSLKEITEKYPEWLQSHRESLPPEQFEKYQEQHSVMCKICEQFEAETPTDSETTQKARFEMVLDLMQQLQDLGHPPKELAGEMPPGLNFDLDALNLSGPPGASGEQCLIM [L26I] | with no effect
3 | MAAAEEGCSVGAEADRELEELLESALDDFDKAKPSPAPPSTTTAPDASGPQKRSPGDTAKDALFASQEKFFQELFDSELASQATVEFEKAMKELAEEEPHLVEQFQKLSEAAGRVGSDMTSQQEFTSCLKETLSGLAKNATDLQNSSMSEEELTKAMEGLGMDEGDGEGNILPIMQSIMQNLLSKDVLYPSLKEITEKYPEWLQSHRESLPPEQFEKYQEQHSVMCKICEQFEAETPTDSETTQKARFEMVLDLMQQLQDLGHPPKELAGEMPPGLNFDLDALNLSGPPGASGEQCLIM [A85V] | with no effect

Variants of: B2
Conditions: with med18_human MED18, Q9BUE0

Row | Variant | effect of a mutation on the interaction
4 | MGVTCVSQMPVAEGKSVQQTVELLTRKLEMLGAEKQGTFCVDCETYHTATSTLGSQGQTGKLMYVMHNSEYPLSCFALFENGPCLIADTNFDVLMVKLKGFFQSAKASKIETRGTRYQYCDFLVKVGTVTMGPSARGISVEVEYGPCVVASDCWSLLLEFLQSFLGSHTPGAPAVFGNRHDAVYGPADTMVQYMELFNKIRKQQQVPVAGIR [A50T] | with no effect

Variants of: B3
Conditions: with NUP62CL

Row | Variant | effect of a mutation on the interaction
5 | MAFNFGAPSGTSGTAAATAAPAGGFGGFGTTSTTAGSAFSFSAPTNTGTTGLFGGTQNKGFGFGTGFGTTTGTSTGLGTGLGTGLGFGGFNTQQQQQTTLGGLFSQPTQAPTQSNQLINTASALSAPTLLGDERDAILAKWNQLQAFWGTGKGYFNNNIPPVEFTQENPFCRFKAVGYSCMPSNKDEDGLVVLVFNKKETEIRSQQQQLVESLHKVLGGNQTLTVNVEGTKTLPDDQTEVVIYVVERSPNGTSRRVPATTLYAHFEQANIKTQLQQLGVTLSMTRTELSPAQIKQLLQNPPAGVDPIIWEQAKVDNPDSEKLIPVPMVGFKELLRRLKVQDQMTKQHQTRLDIISEDISELQKNQTTSVAKIAQYKRKLMDLSHKTLQVLIKQEIQRKSGYAIQADEEQLRVQLDTIQGELNAPTQFKGRLNELMSQIRMQNHFGAVRSEERYYIDADLLREIKQHLKQQQEGLSHLISIIKDDLEDIKLVEHGLNETIHIRGGVFS [R385K] | with no effect

Variants of: B3
Conditions: with NUP62CL
Remark: another data set of the same source

Row | Variant | effect of a mutation on the interaction
6 | MAFNFGAPSGTSGTAAATAAPAGGFGGFGTTSTTAGSAFSFSAPTNTGTTGLFGGTQNKGFGFGTGFGTTTGTSTGLGTGLGTGLGFGGFNTQQQQQTTLGGLFSQPTQAPTQSNQLINTASALSAPTLLGDERDAILAKWNQLQAFWGTGKGYFNNNIPPVEFTQENPFCRFKAVGYSCMPSNKDEDGLVVLVFNKKETEIRSQQQQLVESLHKVLGGNQTLTVNVEGTKTLPDDQTEVVIYVVERSPNGTSRRVPATTLYAHFEQANIKTQLQQLGVTLSMTRTELSPAQIKQLLQNPPAGVDPIIWEQAKVDNPDSEKLIPVPMVGFKELLRRLKVQDQMTKQHQTRLDIISEDISELQKNQTTSVAKIAQYKRKLMDLSHRTLQVLIKQEIQRKSGYAIQADEEQLRVQLDAIQGELNAPTQFKGRLNELMSQIRMQNHFGAVRSEERYYIDADLLREIKQHLKQQQEGLSHLISIIKDDLEDIKLVEHGLNETIHIRGGVFS [T416A] | with no effect
